These results are taken from patent US20210054097A1.

In assay [1] the target is human activated Factor X (human) (UniProt P00742). Put plainly: cell-based or functional assay.
Assay [2] addresses human plasma-derived Factor X zymogen (human) (UniProt P00742). The assay can be described thus: cell-based or functional assay.
The target is the same in assay [3]. Put plainly: apparent KD fitted from FXa generation assay.

Chain of human plasma-derived Factor X zymogen (human) (P00742 41-179, chain 1 of 2): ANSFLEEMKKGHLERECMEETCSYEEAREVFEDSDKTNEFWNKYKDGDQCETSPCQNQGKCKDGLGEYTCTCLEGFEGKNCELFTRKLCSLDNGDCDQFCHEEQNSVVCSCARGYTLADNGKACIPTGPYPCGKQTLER
Chain of human plasma-derived Factor X zymogen (human) (P00742 183-488, chain 2 of 2): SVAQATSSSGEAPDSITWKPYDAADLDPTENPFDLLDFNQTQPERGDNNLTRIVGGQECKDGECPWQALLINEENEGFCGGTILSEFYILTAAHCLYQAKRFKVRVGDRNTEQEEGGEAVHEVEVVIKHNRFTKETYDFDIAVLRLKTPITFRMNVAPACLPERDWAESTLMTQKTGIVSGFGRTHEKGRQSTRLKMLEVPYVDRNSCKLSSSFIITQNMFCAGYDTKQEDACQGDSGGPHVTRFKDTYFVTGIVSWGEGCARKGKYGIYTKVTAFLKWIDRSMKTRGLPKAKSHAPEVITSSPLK
Chain of human activated Factor X (human) (P00742 41-179, chain 1 of 2): as the sequence (P00742 41-179, chain 1 of 2) above
Chain of human activated Factor X (human) (P00742 235-488, chain 2 of 2): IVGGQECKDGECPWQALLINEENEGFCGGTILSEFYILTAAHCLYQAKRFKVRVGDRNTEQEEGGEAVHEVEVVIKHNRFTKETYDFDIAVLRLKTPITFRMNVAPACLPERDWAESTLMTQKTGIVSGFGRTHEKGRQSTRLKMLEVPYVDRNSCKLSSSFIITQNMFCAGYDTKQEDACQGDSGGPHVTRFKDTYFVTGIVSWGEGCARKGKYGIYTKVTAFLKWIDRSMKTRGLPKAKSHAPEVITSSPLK

Regarding Fab ACE910 anti-FX (J327/L404-k), in assay [1], the FXa amidolytic activity (relative to free FXa, fold) was 1.02 fold. For the same substance, in assay [2], the Increase in FX activation (fold) was < 0.6 fold. In addition, the Kd in assay [3] came out at 3.9 µM.
